Test results published in patent publication US20220112288A1 (published 2022).

Tests used:
[1] = target: T1, human CD4 on cells (SKW3 cells; human PBMCs) (human, UniProt P01730 26-458); test: FACS binning on SKW3 cells pre-incubated with supernatant; competitor RPA-T4-PE-Dazzle 594, its signal read; background 783, max binding 15000
T1 construct: whole, on cells; SKW3 CD4 knockout cells served as the negative cell line; also called hCD4

huCD4-HIS [2] = target: T2, huCD4-HIS (human, UniProt P01730 26-390, limits assumed); test: ELISA binning, competitor Ibalizumab; 100 ng/mL huCD4-HIS, anti-HIS HRP detection; background 45, max binding 3000000
T2 construct: the ELISA binning is not described in the text of this stretch

[3] = target: T1, human CD4 on cells (SKW3 cells; human …); test: FACS binning on SKW3 cells pre-incubated with supernatant; competitor OKT4-A488, its signal read; background 2163, max binding 8200
[4] = target: T1, human CD4 on cells (SKW3 cells; human …); test: FACS primary screen, non-clonal hybridoma supernatant, SKW3 vs SKW3 CD4 knockout cells, anti-mouse Fc A647
[5] = target: T1, human CD4 on cells (SKW3 cells; human …); test: FACS binning on SKW3 cells pre-incubated with supernatant; competitor OKT4a read with anti-human A647 secondary; background 5000, max binding 35000
[6] = target: T1, human CD4 on cells (SKW3 cells; human …); test: FACS primary screen, non-clonal hybridoma supernatant, SKW3 vs SKW3 CD4 knockout cells, anti-human kappa FITC
[7] = target: T1, human CD4 on cells (SKW3 cells; human …); test: FACS confirmation, supernatant on SKW3 WT cells, anti-mouse Fc 647; background gMFI 3300
[8] = target: T1, human CD4 on cells (SKW3 cells; human …); test: FACS confirmation, supernatant on human PBMCs, anti-mouse Fc 647, CD4+ percent of viable cells
[9] = target: T1, human CD4 on cells (SKW3 cells; human …); test: FACS confirmation, supernatant on SKW3 WT cells, anti-human kappa FITC; background gMFI 2500
[10] = target: T1, human CD4 on cells (SKW3 cells; human …); test: FACS confirmation, supernatant on human PBMCs, anti-mouse Fc 647, CD4+ gate
[11] = target: T3, human CD4 on the surface of SKW3 cells or human PBMCs (human, UniProt P01730 26-458); test: FACS binning on SKW3 cells; competitor OKT4a, anti-human A647 secondary (its signal read); background 5000, max binding 35000
T3 construct: whole, on cells; SKW3 CD4 knockout cells served as the negative cell line; also called hCD4; SKW3 WT

[12] = target: T3, human CD4 on the surface of SKW3 cells …; test: FACS primary screen, non-clonal hybridoma supernatant, SKW3 vs SKW3 CD4 KO cells, anti-human kappa FITC
[13] = target: T3, human CD4 on the surface of SKW3 cells …; test: FACS confirmation, supernatant on SKW3 WT cells, anti-human kappa FITC; background gMFI 2500
[14] = target: T3, human CD4 on the surface of SKW3 cells …; test: FACS binning on SKW3 cells; competitor RPA-T4-PE-Dazzle 594 (its signal read); background 783, max binding 15000
[15] = target: T3, human CD4 on the surface of SKW3 cells …; test: FACS primary screen, non-clonal hybridoma supernatant, SKW3 vs SKW3 CD4 KO cells, anti-mouse Fc A647
[16] = target: T3, human CD4 on the surface of SKW3 cells …; test: FACS confirmation, supernatant on human PBMCs, anti-mouse Fc A647, CD4+ gate
[17] = target: T3, human CD4 on the surface of SKW3 cells …; test: FACS binning on SKW3 cells; competitor OKT4-Alexa Fluor 488 (its signal read); background 2163, max binding 8200
[18] = target: T3, human CD4 on the surface of SKW3 cells …; test: FACS confirmation, supernatant on SKW3 WT cells, anti-mouse Fc A647; background gMFI 3300
huCD4-HIS [19] = target: T4, huCD4-HIS (human, UniProt P01730 26-390, limits assumed); test: ELISA binning; competitor ibalizumab; 100 ng/mL huCD4-HIS, anti-HIS HRP detection; background 45, max binding 3000000
T4 construct: not shown: HIS tag

[20] = target: T3, human CD4 on the surface of SKW3 cells …; test: FACS confirmation, supernatant on human PBMCs, anti-mouse Fc A647

| Binder | SKW3 FACS Binning RPA-T4-PE-Dazzle 594 [1] | Ibalizumab ELISA binning signal (huCD4-HIS [2]) | SKW3 FACS Binning OKT4 A488 [3] | SKW3 WT vs KO anti-mFc-647 [4] [fold] | SKW3 FACS Binning OKT4a anti-hu A647 Secondary [5] | SKW3 WT vs KO anti-hKappa-FITC [6] [fold] | SKW3 WT anti-mFc 647, gMFI [7] [gMFI] | PBMCs, anti-mFc 647 CD4+ Percent Bound of Viable [8] [%] | SKW3 WT anti-hu Kappa FITC, gMFI [9] [gMFI] | PBMCs, anti-mFc 647 CD4+ gate - RL1 Binding [10] | OKT4a anti-hu A647 Secondary signal [11] | SKW3 WT vs KO anti-hKappa-FITC [12] [ratio] | SKW3 WT anti-hu Kappa FITC, gMFI [13] [gMFI] | RPA-T4-PE-Dazzle 594 signal [14] | SKW3 WT vs KO anti-mFc-647 [15] [ratio] | PBMCs, anti-mFc 647 CD4+ gate - RL1 Binding [16] | OKT4 A488 signal [17] | SKW3 WT anti-mFc 647, gMFI [18] [gMFI] | Ibalizumab ELISA binning signal (huCD4-HIS [19]) | PBMCs, anti-mFc 647 CD4+ Percent Bound of Viable [20] [%] |
| --- | --- | --- | --- | --- | --- | --- | --- | --- | --- | --- | --- | --- | --- | --- | --- | --- | --- | --- | --- | --- |
| 75110_04G16A (antibody, V domains shown, Tested as non-clonal AlivaMab Mouse Kappa hybridoma supernatant: human variable domains and human kappa, mouse Fc) VH: QVQLQESGPGLVKPSQTLSLTCTVSGDSISSGYYYWSWIRQHPGKGLEWIGYISYSGSTYYNPSLKSRLTISVNTSKNQFSLKLSSLTAADTAVYYCARDRPSNFDAFDIWGQGTMVTVSS VL: EIVLTQSPGTLSLSPGERATLSCRASQSVGSTYLAWYQQKPGQAPRLLIYGAFSRATGIPDRFSGSGSGTDFTLTISRLEPEDFAVYYCQQYGSSPLTFGPGTKVDIK | 13500 | 52600 | 9640 | 6.3 | 6740 | 2.3 | 32500 | 32 | 6830 | 255000 |  |  |  |  |  |  |  |  |  |  |
| 75110_07E04A (antibody, IgG1, V domains shown, Tested as non-clonal AlivaMab Mouse Kappa hybridoma supernatant: human variable domains and human kappa, mouse Fc) VH: EVQLVESGGGLVQPGGSLRLSCAVSGFTFSSYDMHWVRQATGKGLEWVSTIGTAGDTYYPGSVKGRFTISRENAKKFLYLQMNSLRAGDTAVYYCARGGYYYYGMDVWGQGTTVTVSS VL: not shown | 2420 | 1.73e+06 | 9940 | 2.9 | 31300 | 1.8 | 22000 | 30 | 6360 | 206000 |  |  |  |  |  |  |  |  |  |  |
| 75110_14P05A (antibody, V domains shown, Tested as non-clonal AlivaMab Mouse Kappa hybridoma supernatant: human variable domains and human kappa, mouse Fc) VH: EVQLVESGGGLVQPGGSLRLSCAASGFTFSSYDVHWVRQATGKGLEWVSTIGTAGDTYYPGSVKGRFTISRENAKNSLYLQMNSLRAGDTAVYYCARGGFYYYGMDVWGQGTTVTVSS VL: EIVLTQSPGTLSLSPGERATLSCRASQSVSSSYLAWYQQKPGQTPRLLIYGASSRATGIPDRFSGSGSGTDFTLTISRLEPEDFAVFYCQQSGSSPFTFGPGTKVDVK | 20300 | 710000 | 9340 | 4.6 | 6110 | 2.8 | 24000 | 27 | 7520 | 187000 |  |  |  |  |  |  |  |  |  |  |
| 75110_01D24A (antibody, V domains shown, Tested as non-clonal AlivaMab Mouse Kappa hybridoma supernatant: human variable domains and human kappa, mouse Fc) VH: QVQLQQWGAGLLKPSETLSLTCAVYGGSFSGYYWSWIRQPPGKGLEWIGEINHSGSTNYNPSLKSRVTISVDTSENQFSLKLNSVTAADTAVYYCARLVNWFDPWGQGTLVTVSS VL: EIQMTQSPSSVSASVGDRVTITCRASQDISNWLAWYQQKPGKAPNLLIFAASSLQTGVPSRFSGSGSGTDFTLTISSLQPDDFATYYCQQANSFPYSFGQGTNLGIK | 15200 | 20300 | 11100 | 6.8 | 5320 | 2.5 | 25000 | 31 | 5520 | 257000 |  |  |  |  |  |  |  |  |  |  |
| 75110_02I16A (antibody, IgG1, V domains shown, Tested as non-clonal AlivaMab Mouse Kappa hybridoma supernatant: human variable domains and human kappa, mouse Fc; also called 75110_02116A) VH: QVQLQQWGAGLLKPSETLSLTCDVYGGSFSGYYWTWIRQPPGKGLEWIGEINHSGTTNSNPSLKSRVTISVDTSKSQFSLRLSSVTAADTAVYFCTRELNWFDPWGQGTLVTVSS VL: DIQMTQSPSSVSASVGDRVTITCRASQDIANWLAWYQQKPGKAPQLLIYAASSLLGGVPSRFSGSGSGADFTLTISSLHPEDFATYYCQQANSFPYTFGQGTKLEIK | 2590 | 823000 | 9810 | 3 | 30700 | 1.7 | 19400 | 29 | 5740 | 218000 |  |  |  |  |  |  |  |  |  |  |
| 75110_11D03A (antibody, V domains shown, Tested here as non-clonal hybridoma supernatant from AlivaMab Mouse Kappa mice (detected with anti-mouse Fc and anti-human kappa)) VH: EVQLVESGGGLVQPGGSLRLSCAASGFTFSSYWMSWVRQAPGKGLEWVANINQDGNEKYYVDSVKGRFTISRDNAKNSLFLQMNSLRAEDTAVYYCAREGGQWLALDYWGQGALVTVSS VL: DIQMTQSPSSVSASVGDRVTITCRASQGISSWLAWYQQKPGKAPKFLISGASSLQSGVPSRFSGSGSGTDFTLTISSLQPEDFATYYCQQANSFPWTFGQGTKVEIK |  |  |  |  |  |  |  |  |  |  | 43700 | 1 | 4000 | 13100 | 2.6 | 190000 | 4180 | 21100 | 1.63e+06 | 29 |
| 75110_01A06A (antibody, V domains shown, Tested here as non-clonal hybridoma supernatant from AlivaMab Mouse Kappa mice (detected with anti-mouse Fc and anti-human kappa)) VH: EVQLVESGGGLVQPGGSLRLSCAASGFTFSSYWMSWVRQAPGKGLEWVANINEDGNEKYYVDSVKGRLTISRDNAKNSLYLQMNSLRAEDTAVYFCAREGGQWLSLDYWGQGALVTVSS VL: DIQMTQSPSSVSASVGDRVSITCRASQGISSWLAWYQQKPGKAPKILIYGASSLQSGVPSRFSGSGSGTDFTLTISSLQPEDFATYYCQQANSFPWTFGQGTKVEIK |  |  |  |  |  |  |  |  |  |  | 43700 | 2.4 | 5930 | 14700 | 7.5 | 321000 | 2140 | 32300 | 1.26e+06 | 31 |
